This is an account of results in PMC11559096.

Experiment [1] has as its target MHV-2 S2 fragments made by trypsin after receptor binding (69 and 67 kDa) (mouse hepatitis virus type 2 (MHV-2)). The experiment can be described thus: SDS-PAGE of samples heated in 1% SDS (dissociation temperature of the trimer); MHV-2 with receptor, then trypsin at 37°C, in the presence of the HR2-peptide; 5 mM Pefabloc SC and 1% SDS on ice, then 10 min at the indicated temperatures; western blot with MAb10G; trimer to monomers.

For experiment [2] the target is unchanged. The experiment can be described thus: SDS-PAGE of samples heated in 1% SDS (dissociation temperature of the trimer); post-fusion state (MHV-2 with receptor, then trypsin at 37°C), no HR2-peptide; 5 mM Pefabloc SC and 1% SDS on ice, then 10 min at the indicated temperatures; western blot with MAb10G; trimer to monomers.
In experiment [3] the target is MHV-2 spike (S) protein, uncleaved 180 kDa, on authentic virus (mouse hepatitis virus type 2 (MHV-2)). The experiment can be described thus: SDS-PAGE of samples heated in 1% SDS (dissociation temperature of the trimer); pre-fusion state (untreated MHV-2), with or without HR2-peptide; 5 mM Pefabloc SC and 1% SDS on ice, then 10 min at the indicated temperatures; western blot with MAb10G; trimer to monomers.

For experiment [4] the target is unchanged. The experiment can be described thus: SDS-PAGE of samples heated in 1% SDS (dissociation temperature of the trimer); receptor-binding state (MHV-2 with soluble receptor), with or without HR2-peptide; 5 mM Pefabloc SC and 1% SDS on ice, then 10 min at the indicated temperatures; western blot with MAb10G; trimer to monomers.

Take “MHV-2 S2 fragments made by trypsin after receptor binding (69 and 67 kDa) (domain or fragment)”: the values for the dissociation temperature of the trimer in 1% SDS in experiment [1] and in experiment [2] were 80 °C and 100 °C, respectively. The substance further gave a stoichiometry N in experiment [2] of 3.

Turning to “MHV-2 spike (S) protein, uncleaved 180 kDa, on authentic virus (natural protein)”, the dissociation temperature of the trimer in 1% SDS in experiment [3] was under 25 °C; in experiment [4], 65 °C. For the same substance, the stoichiometry N in experiment [3] stood at 3.
